In paper doi:10.1101/2023.08.10.552813:

What was measured:
Assay in all cases: SPR
[1] = biological target: HpARI-LD (full-length HpARI with residues 180-188 of the CCP3 loop deleted) (Heligmosomoides polygyrus bakeri)
[2] = biological target: Heligmosomoides polygyrus Alarmin Release Inhibitor (HpARI), full-length (Heligmosomoides polygyrus bakeri)
[3] = biological target: HpARI_CCP2/3 (HpARI with CCP1 truncated) (Heligmosomoides polygyrus bakeri)
[4] = biological target: HpARI_CCP1/2 (HpARI with CCP3 truncated) (Heligmosomoides polygyrus bakeri)
[5] = biological target: mouse Interleukin 33 (residues 112-270) (mouse)

Sequence of HpARI_CCP2/3 (HpARI with CCP1 truncated) (Heligmosomoides polygyrus bakeri) (A0A3P7XL18 63-297): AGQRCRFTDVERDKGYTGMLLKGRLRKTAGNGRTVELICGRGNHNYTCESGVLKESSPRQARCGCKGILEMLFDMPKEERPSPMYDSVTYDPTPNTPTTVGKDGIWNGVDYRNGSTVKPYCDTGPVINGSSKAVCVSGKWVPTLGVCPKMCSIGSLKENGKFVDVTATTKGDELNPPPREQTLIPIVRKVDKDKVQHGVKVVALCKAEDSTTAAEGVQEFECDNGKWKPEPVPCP

For “mouse Interleukin 33 (residues 112-270) (ligand)”, the Kd [1] was 45 nM, the Kd [2] was 0.048 nM and the Kd [3] was 4 nM. The Kd [4] was 49 nM and the koff, fold over that of full-length HpARI [4] was > 100 fold.

mouse IL-33 R159A (ligand) gave a fold reduction in binding affinity against wild-type mIL-33 [3] of 1000 fold.

With “HpARI-LD (full-length HpARI with residues 180-188 of the CCP3 loop deleted) (natural protein)” the percent reduction of mIL-33 binding against HpARI [5] was 60% and the percent reduction of mIL-33 binding to ST2-Fc [5] was 25%.
